Source: paper PMC3285597

Test system: human Oct-1 E30D/M33L (rodent-like);VP16ΔC;HCF-1N380 (beta-propeller domain) (Homo sapiens;HSV-1;Homo sapiens)
Test: EMSA
Conditions: 10 mM Hepes pH 7.9, 75 mM KCl, 1 mM EDTA, 10 mM DTT, 1 µg poly-dI-dC, up to 4 µl reticulocyte lysate, room temperature 20 min; 4% native gel in 1x …

## ICP0 (OCTA+)TAATGARAT probe
  binding signal (fold reduction of VIC vs wild type Oct-1): > 100
